Results taken from patent publication US20100222258A1 (KABUSHIKI KAISHA HAYASHIBARA SEIBUTSU KAGAKU KENKYUJO, published 2010).
Numbering of substitutions follows the chain as printed. Each block holds one binder with its values, some of them ahead of it.

Assays:
[1] = molecular target: T1, TNF-R2 (a protein having the amino acid sequence, Accession No. M55994 registered at GENBANK) (UniProt P20333 23-257, limits assumed); test: SPR (BIACORE 2000), receptor on sensor tip; grade 1 = 0.001 to 0.1 time that of recombinant TNF-α
T1 construct: also called TNF receptor with 75 kilo daltons
T1 sequence (looked up): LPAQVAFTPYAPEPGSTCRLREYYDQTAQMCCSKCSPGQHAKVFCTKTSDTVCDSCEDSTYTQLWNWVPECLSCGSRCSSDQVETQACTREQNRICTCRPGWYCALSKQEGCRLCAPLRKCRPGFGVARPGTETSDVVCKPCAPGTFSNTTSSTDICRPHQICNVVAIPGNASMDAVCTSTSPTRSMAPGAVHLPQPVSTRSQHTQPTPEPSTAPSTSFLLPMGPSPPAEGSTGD
Excerpt: (§1) Using the above detector based on surface plasmon resonance effect again, the resulting clones binding to TNF-R1 (or TNF-R2) were subjected to the remaining sensor tip conjugated with TNF-R2 (or TNF-R1) to measure receptor binding affinity and select clones having a variation of receptor binding affinity. […] The resulting DNAs were digested with restrict enzymes NdeI and BamHI to obtain DNA fragments. The resulting DNA fragments were introduced into a plasmid vector containing T7 promoter region, T7 terminator region, ampicillin resistant gene region and ColE1/Ori region (product name “pET-3a”, manufactured by “Novagen®” (EMD Biosciences, Inc.)) at the position of the above restriction sites. The resulting plasmid was introduced into E. coli BL21DE3 strain to obtain a transformed E. coli for producing the TNF mutant proteins. The obtained transformed E. coli was cultured according to usual method and centrifuged to collect E. coli pellet. The resulting pellet was washed twice with TES buffer (pH 8.0) (20 mM Tris-HCl, 10 mM ethylene diamine tetraacetic acid and 0.5 M sodium chloride) and admixed with TES buffer (pH 8.0) containing 0.2 mg/ml lysozyme. The resulting suspension was sonicated according to usual manner, and centrifuged to collect a precipitate containing the produced TNF mutant protein. The resulting precipitate was treated three times in a manner of admixing with TES buffer containing 1 (w/w) % Triton X-100, removed from supernatant by centrifuging, admixed with 50 mM Tris-HCl (pH 7.0) containing 8 M guanidine hydrochloride and 50 mM dithiothreitol, with stirring for 16 hours at ambient temperature under shielded condition, and centrifuged to collect a supernatant. The resulting supernatant was gently admixed with 100 time volumes of a aqueous solution containing 1 M Tris, 0.9 (w/v) % sodium chloride, 0.4 M L-arginine chloride, 2.5 mM reduced glutathione, 0.5 mM oxidized glutathione and 0.05 (w/v) % Tween 20, and kept at 4° C. for 16 hours.

[2] = molecular target: T2, TNF-R1 (a protein having the amino acid sequence, Accession No. M58286 registered at GENBANK) (UniProt P19438 30-211, limits assumed); test: SPR (BIACORE 2000), receptor on sensor tip; grade 3 = 0.5 to 2 times that of recombinant TNF-α
T2 construct: also called TNF receptor having a molecular weight of 55 kilo daltons
T2 sequence (looked up): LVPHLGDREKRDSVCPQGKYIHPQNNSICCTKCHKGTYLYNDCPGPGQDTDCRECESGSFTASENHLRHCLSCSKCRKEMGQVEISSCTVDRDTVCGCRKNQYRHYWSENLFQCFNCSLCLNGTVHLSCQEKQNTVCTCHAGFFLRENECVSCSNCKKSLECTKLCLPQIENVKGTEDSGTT
Excerpt: as §1

[3] = molecular target: T2, TNF-R1 (a protein having the amino acid …); test: SPR (BIACORE 2000), receptor on sensor tip; grade 4 = two times or more that of recombinant TNF-α
Excerpt: as §1

[4] = molecular target: T3, TNF-R1 on HEp-2 cells (human, UniProt P19438 30-455); test: cell-based or functional assay
T3 sequence (looked up): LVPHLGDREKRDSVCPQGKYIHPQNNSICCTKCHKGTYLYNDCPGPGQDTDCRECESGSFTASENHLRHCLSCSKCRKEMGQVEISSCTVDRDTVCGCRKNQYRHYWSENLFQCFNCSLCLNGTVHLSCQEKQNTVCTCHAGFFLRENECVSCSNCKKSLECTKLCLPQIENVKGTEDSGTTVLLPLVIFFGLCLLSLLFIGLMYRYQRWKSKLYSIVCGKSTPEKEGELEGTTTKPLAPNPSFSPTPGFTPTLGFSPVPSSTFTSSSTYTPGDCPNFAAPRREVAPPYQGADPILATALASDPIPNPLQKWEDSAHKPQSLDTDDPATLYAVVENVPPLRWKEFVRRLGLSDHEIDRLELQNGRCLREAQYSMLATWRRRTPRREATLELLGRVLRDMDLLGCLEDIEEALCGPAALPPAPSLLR

[5] = molecular target: T4, TNF-R1 on L-M cells (mouse, UniProt P25118 30-454); test: cell-based or functional assay
T4 sequence (looked up): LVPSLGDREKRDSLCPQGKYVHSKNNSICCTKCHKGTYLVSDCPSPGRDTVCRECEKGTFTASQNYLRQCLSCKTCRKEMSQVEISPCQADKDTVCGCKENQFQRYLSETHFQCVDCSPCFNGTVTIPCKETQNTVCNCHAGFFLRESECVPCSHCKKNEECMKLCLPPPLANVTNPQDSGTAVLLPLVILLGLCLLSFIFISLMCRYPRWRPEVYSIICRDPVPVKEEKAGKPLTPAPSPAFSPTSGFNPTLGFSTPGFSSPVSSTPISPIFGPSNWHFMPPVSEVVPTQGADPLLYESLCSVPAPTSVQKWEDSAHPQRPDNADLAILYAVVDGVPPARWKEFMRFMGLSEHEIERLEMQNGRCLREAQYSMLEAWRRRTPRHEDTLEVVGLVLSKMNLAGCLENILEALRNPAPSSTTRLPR

- binding affinity relative to recombinant TNF-α [1]: 0.001 to 0.1 fold
- binding affinity relative to recombinant TNF-α [2]: 0.5 to 2 fold
B1: TNF mutant protein of clone No. 1 (ligand)
chain: VRSSSRTPSDMPVAHVVANPQAEGQLQWQNRWANALLANGVELRDNQLVVPSEGLYLIYSQVLFSGQGCPSTHVLLTHTISRIAVSYQTPVNLLSAIRSPCQRETPEGAEANPWYEPIYLGGVFQLEPGDRLSAEINRPDYLDFAESGQVYFGIIAL
notes: Mutant of lysine-replaced TNF, made in E. coli

- binding affinity relative to recombinant TNF-α [1]: 0.001 to 0.1 fold
- binding affinity relative to recombinant TNF-α [3]: ≥ 2 fold
B2: TNF mutant protein of clone No. 25 (ligand)
chain: B1 chain with Q29L, W32R, A84S, V85K, S86T, Q88S, T89H
notes: as for B1

- binding affinity relative to recombinant TNF-α [1]: 0.001 to 0.1 fold
- binding affinity relative to recombinant TNF-α [3]: ≥ 2 fold
B6: TNF mutant protein of clone No. 33 (ligand)
chain: B1 chain with Q29L, W32R, A84N, V85H, S86R, T89D
notes: as for B1

- binding affinity relative to recombinant TNF-α [1]: 0.001 to 0.1 fold
- binding affinity relative to recombinant TNF-α [2]: 0.5 to 2 fold
B7: TNF mutant protein of clone No. 17 (ligand)
chain: B1 chain with Q29L, W32R, A84S, V85K, S86T, Q88T, T89H
notes: as for B1

The remaining lines, values behind:

B3: TNF mutant protein of clone No. 3 (ligand)
chain: B1 chain with Q29L, R31S, W32D, E146A, S147R
notes: as for B1
- binding affinity relative to recombinant TNF-α [1]: 0.001 to 0.1 fold
- binding affinity relative to recombinant TNF-α [2]: 0.5 to 2 fold

B4: TNF mutant protein of clone No. 26 (ligand)
chain: B1 chain with Q29L, W32R, A84S, V85S, S86H, Q88R, T89F
notes: as for B1
- binding affinity relative to recombinant TNF-α [1]: 0.001 to 0.1 fold
- binding affinity relative to recombinant TNF-α [3]: ≥ 2 fold

B5: TNF mutant protein of clone No. 38 (ligand)
chain: B1 chain with Q29L, W32R, A84G, V85G, S86P, T89R
notes: Mutant of lysine-replaced TNF, made in E. coli; also called TNF antagonist of clone No. 38
- binding affinity relative to recombinant TNF-α [1]: 0.001 to 0.1 fold
- Viability (%) of HEp-2 cells, 10 ng/ml TNF-α + 1,000 ng/ml TNF antagonist (9 without antagonist) [4]: 11%
- Viability (%) of HEp-2 cells, 10 ng/ml TNF-α + 10,000 ng/ml TNF antagonist (9 without antagonist) [4]: 22%
- Viability (%) of HEp-2 cells, 10 ng/ml TNF-α + 100,000 ng/ml TNF antagonist (9 without antagonist) [4]: 72%
- Viability (%) of HEp-2 cells, 10 ng/ml TNF-α + 500,000 ng/ml TNF antagonist (9 without antagonist) [4]: 95%
- Viability (%) of L-M cells, 10 ng/ml TNF-α + 1,000 ng/ml TNF antagonist (17 without antagonist) [5]: 42%
- Viability (%) of L-M cells, 10 ng/ml TNF-α + 10,000 ng/ml TNF antagonist (17 without antagonist) [5]: 47%
- Viability (%) of L-M cells, 10 ng/ml TNF-α + 100,000 ng/ml TNF antagonist (17 without antagonist) [5]: 58%
- Viability (%) of L-M cells, 10 ng/ml TNF-α + 500,000 ng/ml TNF antagonist (17 without antagonist) [5]: 70%
- binding affinity relative to recombinant TNF-α [2]: 0.5 to 2 fold

B8: TNF mutant protein of clone No. 29 (ligand)
chain: B1 chain with Q29L, W32R, A84T, V85E, S86Q, Q88S, T89H
notes: as for B1
- binding affinity relative to recombinant TNF-α [1]: 0.001 to 0.1 fold
- binding affinity relative to recombinant TNF-α [2]: 0.5 to 2 fold

B9: TNF mutant protein of clone No. 36 (ligand)
chain: B1 chain with Q29L, W32R, V85P, S86G, Q88S, T89H
notes: Mutant of lysine-replaced TNF, made in E. coli; also called TNF antagonist of clone No. 36
- binding affinity relative to recombinant TNF-α [1]: 0.001 to 0.1 fold
- Viability (%) of HEp-2 cells, 10 ng/ml TNF-α + 1,000 ng/ml TNF antagonist (9 without antagonist) [4]: 12%
- Viability (%) of HEp-2 cells, 10 ng/ml TNF-α + 10,000 ng/ml TNF antagonist (9 without antagonist) [4]: 13%
- Viability (%) of HEp-2 cells, 10 ng/ml TNF-α + 100,000 ng/ml TNF antagonist (9 without antagonist) [4]: 38%
- Viability (%) of HEp-2 cells, 10 ng/ml TNF-α + 500,000 ng/ml TNF antagonist (9 without antagonist) [4]: 74%
- Viability (%) of L-M cells, 10 ng/ml TNF-α + 1,000 ng/ml TNF antagonist (17 without antagonist) [5]: 43%
- Viability (%) of L-M cells, 10 ng/ml TNF-α + 10,000 ng/ml TNF antagonist (17 without antagonist) [5]: 54%
- Viability (%) of L-M cells, 10 ng/ml TNF-α + 100,000 ng/ml TNF antagonist (17 without antagonist) [5]: 63%
- Viability (%) of L-M cells, 10 ng/ml TNF-α + 500,000 ng/ml TNF antagonist (17 without antagonist) [5]: 59%
- binding affinity relative to recombinant TNF-α [2]: 0.5 to 2 fold
